The values that follow are results of earlier work, collected in patent US20170173060A1, “ACTIVATION OF THE ENDOGENOUS ILEAL BRAKE HORMONE PATHWAY FOR ORGAN REGENERATION AND RELATED COMPOSITIONS, METHODS OF TREATMENT, DIAGNOSTICS, AND REGULATORY SYSTEMS” (VOLANT HOLDINGS GMBH, priority 2014, published 2017).

Data set [1] relates to severely streptozotocin-diabetic rats. Conditions: rat, in vivo.
The subject of a further data set is MIN-6 cells. Conditions: immunoprecipitation and western blotting. (In western blotting, separated proteins are transferred to a membrane and probed.)

B1: EGF (protein, UniProt P01133 23-1207, looked up)
Pro-epidermal growth factor: PQHWSCPEGTLAGNGNSTCVGPAPFLIFSHGNSIFRIDTEGTNYEQLVVDAGVSVIMDFHYNEKRIYWVDLERQLLQRVFLNGSRQERVCNIEKNVSGMAINWINEEVIWSNQQEGIITVTDMKGNNSHILLSALKYPANVAVDPVERFIFWSSEVAGSLYRADLDGVGVKALLETSEKITAVSLDVLDKRLFWIQYNREGSNSLICSCDYDGGSVHISKHPTQHNLFAMSLFGDRIFYSTWKMKTIWIANKHTGKDMVRINLHSSFVPLGELKVVHPLAQPKAEDDTWEPEQKLCKLRKGNCSSTVCGQDLQSHLCMCAEGYALSRDRKYCEDVNECAFWNHGCTLGCKNTPGSYYCTCPVGFVLLPDGKRCHQLVSCPRNVSECSHDCVLTSEGPLCFCPEGSVLERDGKTCSGCSSPDNGGCSQLCVPLSPVSWECDCFPGYDLQLDEKSCAASGPQPFLLFANSQDIRHMHFDGTDYGTLLSQQMGMVYALDHDPVENKIYFAHTALKWIERANMDGSQRERLIEEGVDVPEGLAVDWIGRRFYWTDRGKSLIGRSDLNGKRSKIITKENISQPRGIAVHPMAKRLFWTDTGINPRIESSSLQGLGRLVIASSDLIWPSGITIDFLTDKLYWCDAKQSVIEMANLDGSKRRRLTQNDVGHPFAVAVFEDYVWFSDWAMPSVMRVNKRTGKDRVRLQGSMLKPSSLVVVHPLAKPGADPCLYQNGGCEHICKKRLGTAWCSCREGFMKASDGKTCLALDGHQLLAGGEVDLKNQVTPLDILSKTRVSEDNITESQHMLVAEIMVSDQDDCAPVGCSMYARCISEGEDATCQCLKGFAGDGKLCSDIDECEMGVPVCPPASSKCINTEGGYVCRCSEGYQGDGIHCLDIDECQLGEHSCGENASCTNTEGGYTCMCAGRLSEPGLICPDSTPPPHLREDDHHYSVRNSDSECPLSHDGYCLHDGVCMYIEALDKYACNCVVGYIGERCQYRDLKWWELRHAGHGQQQKVIVVAVCVVVLVMLLLLSLWGAHYYRTQKLLSKNPKNPYEESSRDVRSRRPADTEDGMSSCPQPWFVVIKEHQDLKNGGQPVAGEDGQAADGSMQPTSWRQEPQLCGMGTEQGCWIPVSSDKGSCPQVMERSFHMPSYGTQTLEGGVEKPHSLLSANPLWQQRALDPPHQMELTQ
modifications: Pro-epidermal growth factor
Regarding B1, the glucose tolerance result in data set [1] is “neither gastrin nor EGF alone improved glucose tolerance”.

B2: Betacellulin (protein, UniProt P35070 32-111, looked up)
Betacellulin: DGNSTRSPETNGLLCGDPEENCAATTTQSKRKGHFSRCPKQYKHYCIKGRCRFVVAEQTPSCVCDEGYIGARCERVDLFY
modifications: Betacellulin
notes: member of the epidermal growth factor family
Turning to B2, in the data set on MIN-6 cells, the “phosphorylation of EGF receptors (ErbBs)” value was “induced phosphorylation of only ErbB-1 and ErbB-2”.
